Assay results reported in the supplement of paper PMC9170038.

Tested on: MS2 coat protein
Experiment: apparent KD of MS2 coat protein; designed switch direction (-1 OFF switch, 1 ON switch): -1; higher = weaker reporter binding
In short: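 An oligonucleotide input, 200 uM small-molecule ligand, or no input was present during titration of SNAP-549-labelled MS2 coat protein, which was doubled from 0.7 or 1.5 nM to 3 µM. Designed RNA switches had been transcribed on Illumina chips by stalled E. coli RNA polymerase. Apparent KD per design is the median over clusters of curves fitted to normalised cluster fluorescence.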

[1] = Eterna round: R95, input ligand: FMN 200 uM
[2] = Eterna round: R95, input ligand: microRNA oligo, concentration not stated
[3] = Eterna round: R95, input ligand: none
[4] = input ligand: microRNA oligo, concentration not stated

Sequence | apparent KD of MS2 coat protein (input ligand: FMN 200 uM) | apparent KD of MS2 coat protein (input ligand: none) | also measured
CAGUACAGAGGAUAUACAUGAGGAUCACCCAUGUGUUUCAGCUAGGAAACUAGCGAAUGUAGAAGGCUGUACUG [jl-ex3-4.24 salish99 mod] (Eterna round: R97, puzzle: Exclusion 3) | 0.178 µM | 0.0383 µM | –
AGGCGCUAGUAGGAUAUCUGGAACGGAUUAUAAAGAGAAGGGCUGACAUGAGGAUCACCCAUGUGACCAAUGCG [Eternabot (L1) Solution 50] (Eterna round: R97, puzzle: Exclusion 6) | 0.0412 µM | 0.0506 µM | –
GUAAUGCUAGGAUAUCGACAAAUUUACAUGAGGAUCACCCAUGUGAACCCUGUGUGGUAACGAGAAGGAGUCAGCU [Eternabot (L2) Solution 54] (Eterna round: R97, puzzle: Exclusion 5) | 0.0391 µM | 0.0535 µM | –
UGGUCACAUGAGGAUCACCCAUGUCAGGAUAUCUACAUUGAAGCCUCGGCUUCAAUGUAGAGAAGGGACAUAAU [E1/6-B2] (Eterna round: R97, puzzle: Exclusion 1) | 0.121 µM | 0.265 µM | –
GGGCCCGGUGUGAGGAUAUUGGGCCCGAAAGGGCCCGAGAAGGCACAUGAGGAUCACCCAUGUAAGCCGGGCCC [-46.5, -44.5 kcal, A 23%, 5c-0] (Eterna round: R97, puzzle: Brourd's mod of Exclusion 4) | 0.0158 µM | 0.0149 µM | –
GUUUCACAUGAGGAUCACCCAUGUGAGGAUAUGGACUUUUUAGUAAUAAUUGUUGGGUUCAGAAGGCGCGUGAU [JR_Exc1_Sub005] (Eterna round: R97, puzzle: Exclusion 1) | 0.0531 µM | 0.0447 µM | –
AAAUUGCUAGAGGAUAUCGGAUAGGAUCUAUCGCGAGAAGGCUGGACAUGAGGAUCACCCAUGUUCUGUUGGGA [EX6 #29] (Eterna round: R97, puzzle: Exclusion 6) | 0.0574 µM | 0.0252 µM | –
UAUUAGCAAGCCAGAUCCCACAUGAGGAUCACCCAUGUGCUCGUCUUAUAAGGUACUGUGACGAAAGUCACGGUACC [Sensor 3, v1 - 93] (puzzle: Sensor v3, turn-off variant 1) | – | – | apparent KD of MS2 coat protein [1]: 0.137 µM; apparent KD of MS2 coat protein [2]: 1.12 µM; apparent KD of MS2 coat protein [3]: 0.184 µM
UUAUUAAGUGUGAGGAUAUGCUGGUCCUUGGAUCAGCAGAAGGCACAUGAGGAUCACCCAUGUACAAUAUAUUA [Mat - Exclusion 4 - JL Mod - D30] (Eterna round: R96, puzzle: Brourd's mod of Exclusion 4) | 0.235 µM | 0.0421 µM | apparent KD of MS2 coat protein [4]: 0.0305 µM
AAAACUGCUCAGGAUAUUUGUGUGUCAGGGCAUAAAGAAGGGAGCACAUGAGGAUCACCCAUGUGUUGGGUUCC [Zasozaer] (puzzle: Exclusion 6) | – | – | apparent KD of MS2 coat protein [2]: 0.0687 µM
UAUUACUCAGGAUAUAUGAUGUGAAACAUGAGGAUCACCCAUGUAAUAUUAUGGAUGUAAAUAGAAGGGAGAUAAU [Mat - Exclusion 5 - JL mod - D21] (puzzle: Exclusion 5) | – | – | apparent KD of MS2 coat protein [1]: 0.0371 µM; apparent KD of MS2 coat protein [2]: 0.0511 µM; apparent KD of MS2 coat protein [3]: 0.0569 µM
AGGUCACAUGAGGAUCACCCAUGUCAGGAUAUCUACAUUGAAGCCUCGGCUUCAAUGUAGAGAAGGGACAAUUA [E1/6-B2] (Eterna round: R97, puzzle: Exclusion 1) | 0.209 µM | 0.0722 µM | –
GACCAGCUAGGAUAUACAUGAGGAUCACCCAUGUGCAUUAAAGGGCUGGGUGACCCGCGUAGAAGGAGCGGGUC [Ustieded] (Eterna round: R97, puzzle: Exclusion 3) | 0.0139 µM | 0.0145 µM | –
AAAUAGCAUGAGGAUAUUGAACUGUAUAUAGUACGAGAAGGCAUGACAUGAGGAUCACCCAUGUUUUGUUGGGA [EX6 #3] (Eterna round: R97, puzzle: Exclusion 6) | 0.114 µM | 0.0332 µM | –
AGCUGUGAGUGAGGAUAUCUGCUGUUGUCAGUCGGAGAAGGCGCGGACAGAACAUGAGGAUCACCCAUGUGUAUGGGCGGCCUC [Usatia] (Eterna round: R96, puzzle: Exclusion NG 1) | 0.217 µM | 0.0855 µM | apparent KD of MS2 coat protein [4]: 0.0436 µM
GUGGGUCCUCACGGUGCUACAUGAGGAUCACCCAUGUGGAUUGAGGAUAUCGUAACCCUACGGGACGAGAAGGCAGUUUACUGU [Ex NG3 #100] (Eterna round: R96, puzzle: Exclusion NG 3) | 0.0485 µM | 0.0231 µM | apparent KD of MS2 coat protein [4]: 0.0147 µM
UUAUUAUAUGUAGGAUAUGCAUAUUAUUAUUAUGCAGAAGGACAUGAGGAUCACCCAUGUAUAUUAUUAUUGUAUAUUAUAUAU [Title] (Eterna round: R96, puzzle: Exclusion NG 1) | – | – | apparent KD of MS2 coat protein [4]: 0.0257 µM
AAUGAUUGACGAGGAUAUUGUGGUAGAUCACGACGAGAAGGCGUUUGUCACAUGAGGAUCACCCAUGUGAGCCUUGUGGAUAGA [Ex NG1 #75] (Eterna round: R96, puzzle: Exclusion NG 1) | 0.16 µM | 0.0309 µM | apparent KD of MS2 coat protein [4]: 0.0201 µM

Sequence | apparent KD of MS2 coat protein (input ligand: FMN 200 uM) | apparent KD of MS2 coat protein (input ligand: none) | also measured
AGCUGUGGCCGAGGAUAUCUAACAAUCCUAACCGAAAUAUAAUCGGACAUGAGGAUCACCCAUGUAGAGAAGGCGGUCUCAGCA [Eli eng2 - 074] (Eterna round: R96, puzzle: Exclusion NG 2) | – | – | apparent KD of MS2 coat protein [4]: 0.0681 µM
GCCAAUGUGGAGGAUAUCGACUUCGAAAGAAGUCGAGAAGGCCACACAUGAGGAUCACCCAUGUGAUGCCAGGC [Omei Ex6 H10] (Eterna round: R97, puzzle: Exclusion 6) | 0.216 µM | 0.189 µM | –
GGUGCGUGUGUGAGGAUAUGCUGGUCCUUGGCUCGGCAGAAGGCACAUGAGGAUCACCCAUGUGGUGUCGUGCC [salish99_Bmod_ex4_057] (puzzle: Brourd's mod of Exclusion 4) | – | – | apparent KD of MS2 coat protein [2]: 0.0199 µM
UAUAUAUAGUAAGGAUAUGUAGUUAUUUUAUAAACAGAAGGUACUGACAUGAGGAUCACCCAUGUUUUAGUGUGGGCAUGUAGA [JMF's solution 6] (Eterna round: R96, puzzle: Exclusion NG 1) | – | – | apparent KD of MS2 coat protein [4]: 0.0711 µM
CUGUUUUUCGCAGGAUAUGCUCCUCCUUUAUUAGCAGAAGGGCGUUAAACAUGAGGAUCACCCAUGUAUGGUAAUGACAUUUUC [JR_ExcNG1_Sub062] (Eterna round: R96, puzzle: Exclusion NG 1) | – | – | apparent KD of MS2 coat protein [4]: 0.0298 µM
GAAAAGGUAGGAUAUACGAAAAAAAAGGGUAGAAAAAAAAAACAUGAGGAUCACCCAUGUAGAAGGACCAAAAG [salish99_ex2_r3_059] (Eterna round: R96, puzzle: Exclusion 2) | – | – | apparent KD of MS2 coat protein [4]: 0.0347 µM
AUUCCACAUGAGGAUCACCCAUGUGAGGAUAUCAUGCUUCGUAGUAAACUACGAAGUGUGAGAAGGCACAAUGG [Omei Ex1 C3] (Eterna round: R97, puzzle: Exclusion 1) | 0.183 µM | 0.062 µM | –
GGAUAGUGAGGAUAUGCAUACGGUGUAAGUCCCAGAUCGAAACAUGAGGAUCACCCAUGUAGAAGGCGCAAAAC [Begerila] (puzzle: Exclusion 2) | – | – | apparent KD of MS2 coat protein [2]: 0.0203 µM
CAGAUGGGUAACUACACCCACAUGAGGAUCACCCAUGUACACAUAGCUUACGCUCGUCUUAAGCGUGUUUUCGUAGC [Eternabot (L2) Solution 10] (Eterna round: R97, puzzle: Sensor, turn-off variant 1) | 0.032 µM | 0.0334 µM | –
ACUUGUUGUCCUUGAUAUUACAUGAGGAUCACCCAUGUUAUUGUGAUUAUGAUGUGUAAGUUUGUUGCUCGUCUUAU [JR_STOV1_Sub065] (Eterna round: R97, puzzle: Sensor, turn-off variant 1) | 0.0543 µM | 0.0604 µM | –
GUACUGACAGGAUAUACAUGAGGAUCACCCAUGUCCUUAGGCUGACAAAAGUCAGCAAGUAGAAGGGUCUGUAC [Omei Ex3 Model Bachelor's Dilema v3] (Eterna round: R97, puzzle: Exclusion 3) | 1.5 µM | 0.0855 µM | –
ACAAGCUUUUUGUUCGUCUUAUAAUAUUCUAAGAGGAUAACAUGAGGAUCACCCAUGUAACAAAGACGGACUCAUGU [Sesor Array 14 - Jieux - Sensor v3, turn-off variant 2] (puzzle: Sensor v3, turn-off variant 2) | – | – | apparent KD of MS2 coat protein [1]: 0.013 µM; apparent KD of MS2 coat protein [2]: 0.139 µM; apparent KD of MS2 coat protein [3]: 0.0117 µM
GUGAGGCCAGUGAGGAUAUGUGUACAACUACGUGCAUAGAAGGCACAUGAGGAUCACCCAUGUGAAUUCCCAGG [Eternabot (L1) Solution 65] (Eterna round: R97, puzzle: Brourd's mod of Exclusion 4) | 0.0147 µM | 0.0144 µM | –
UUCCUACAUGAGGAUCACCCAUGUCAGGAUAUAUAAAACGCUCAGAUAAAAGAGCAAGAUAGAAGGGAUUGGGA [Aquis] (Eterna round: R97, puzzle: Exclusion 1) | 0.0145 µM | 0.0151 µM | –
GACGUGUGAGGAUAUGCCGUGCCGGUCCGGAAGGUUCGGGUGCAGAAGGCACAUGAGGAUCACCCAUGUGUAAG [Excls4-VI] (puzzle: Exclusion 4) | – | – | apparent KD of MS2 coat protein [2]: 0.0177 µM
GGAGUACAUGAGGAUCACCCAUGUGAGGAUAUGUAAGGAUAGUAGGUAAGGAAAGAGGACAGAAGGCACGGGAA [JR_Exclu1_Sub070] (puzzle: Exclusion 1) | – | – | apparent KD of MS2 coat protein [1]: 0.046 µM; apparent KD of MS2 coat protein [2]: 0.0414 µM; apparent KD of MS2 coat protein [3]: 0.0672 µM
CCCGAGCAUGUAGGAUAUGGCUCGGUGUCUGGGCCAGAAGGACAUGAGGAUCACCCAUGUCUGCGGGUGUGGAUAUGAUUUGGG [-32, -31 kcal A 20%] (Eterna round: R96, puzzle: Exclusion NG 1) | 0.0852 µM | 0.0321 µM | apparent KD of MS2 coat protein [4]: 0.0145 µM
